Assay results reported in patent US6180362A, “Peptides which inhibit ras protein activity, their preparation and use” (Rhone-Poulenc Rorer S.A., priority 1992, dated 2001).

B1: [275-351] GAP: fragment of the protein GAP holding the effector region, about residues 275 to 350; peptide SEQ ID No. 2 (protein)
chain: APPEPVEDRRRVRAILPYTKVPDTDEISFLKGDMFIVHNELEDGWMWVTNLRTDEQGLIVEDLVEEVGREEDPHEGKI
B2: [768-860] PLCγ: fragment of identical length prepared by the same techniques from type γ human phospholipase C (protein, UniProt P19174 768-860, looked up, fragment)
chain: EPDYGALYEGRNPGFYVEANPMPTFKCAVKALFDYKAQREDELTFIKSAIIQNVEKQEGGWWRGDYGGKKQLWFPSNYVEEMVNPVALEPERE
B3: P9: Peptide SEQ ID No. 4, purified as GST fusion protein and separated from GST by thrombin cleavage (protein)
chain: GGGFPPLPPPPYLPPLGAGLGTVDEGDSLDGPEYEEEEVAIPLTAPPTNQWYHGKLDRTIAEERLRQAGKSGSYLIRESDRRPGSFVLSFLSQMNVVNHFRIIAMCGDYYIGGRRFSSLSDLIGYYSHVSCLLKGEKLLYPVAPPEPVEDRRRVRAILPYTKVPDTDEISFLKGDMFIVHNELEDGWMWVTNLRTDEQGLIVEDLVEEVGREEDPHEGKIWFHGKISKQEAYNLLMTVGQVCSFLVRPSDNTPGDYSLYFRTNENIQRFKICPTPNNQFMMGGRYYNSIGDIIDHYRKEQIVEGYYLKEPVPMQDQEQVLNDTVDGKEIYNTIRRKTKDAFYKNIVKKGYLLKKGKGKRWKNLYFILEGSDAQLIYFESEKRATKPKGLIDLSVCSVYVVHDSLFGRPNCFQIVVQHFSEEHYIFYFAGETPEQAEDWMKGLQAFCNLRKSSPGTSNKRLRQVSSLVLHIEEAHKLPVKHFTNPYCNIYLNSVQVAKTHAREGQNPVWSEEFVFDD

Experiments:
[1] = target: T1, GAP-p21 interaction (Ha-ras p21-GTP and GAP) (Homo sapiens, UniProt P20936); assay: GAP-stimulated GTPase reaction of Ha-ras p21-GTP (GAP-p21 interaction); format: biochemical
T1 construct: GST (glutathione S-transferase) (N); made in house; host or cells: E. coli (crude cytosol for GAP)
T1 sequence (P20936 1-1047): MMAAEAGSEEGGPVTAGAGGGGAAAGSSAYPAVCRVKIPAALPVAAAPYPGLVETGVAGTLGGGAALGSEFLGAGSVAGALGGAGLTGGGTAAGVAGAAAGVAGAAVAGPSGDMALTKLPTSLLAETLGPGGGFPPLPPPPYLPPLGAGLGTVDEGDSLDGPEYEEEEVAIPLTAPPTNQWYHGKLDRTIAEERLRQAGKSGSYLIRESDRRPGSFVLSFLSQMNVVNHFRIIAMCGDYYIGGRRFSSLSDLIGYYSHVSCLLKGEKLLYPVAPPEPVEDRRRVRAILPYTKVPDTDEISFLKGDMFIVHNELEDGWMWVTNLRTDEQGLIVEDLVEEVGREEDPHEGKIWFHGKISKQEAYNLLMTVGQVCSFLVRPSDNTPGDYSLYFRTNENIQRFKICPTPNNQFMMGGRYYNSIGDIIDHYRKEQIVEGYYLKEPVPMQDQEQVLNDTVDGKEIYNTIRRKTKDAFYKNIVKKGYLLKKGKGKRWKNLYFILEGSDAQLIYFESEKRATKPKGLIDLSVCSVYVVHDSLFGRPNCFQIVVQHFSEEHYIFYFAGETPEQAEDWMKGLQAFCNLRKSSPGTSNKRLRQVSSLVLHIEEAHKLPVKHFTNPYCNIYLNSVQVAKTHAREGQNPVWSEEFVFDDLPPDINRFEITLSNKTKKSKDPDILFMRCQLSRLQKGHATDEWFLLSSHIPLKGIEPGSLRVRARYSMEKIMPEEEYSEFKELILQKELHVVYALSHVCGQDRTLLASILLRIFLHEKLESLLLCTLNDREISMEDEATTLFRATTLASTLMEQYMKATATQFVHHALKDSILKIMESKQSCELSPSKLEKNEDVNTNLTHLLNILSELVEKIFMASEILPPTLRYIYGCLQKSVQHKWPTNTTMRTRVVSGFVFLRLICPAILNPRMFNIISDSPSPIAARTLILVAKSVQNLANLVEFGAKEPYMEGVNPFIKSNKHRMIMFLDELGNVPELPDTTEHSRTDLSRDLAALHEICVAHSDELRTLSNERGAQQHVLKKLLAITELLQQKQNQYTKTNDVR
Experimental: E.1.2. Absence of an effect of the Ac200 antibody on the GAP-p21 interaction The interaction between GAP and the complex p21-GTP is determined in accordance with the following protocol. The normal protein Ha-ras p21 (Rey et al., Mol. Cell. Biol. 9 (1989) 3904) is equilibrated with an excess of (γ-^32 P) GTP (3000 Ci/mmol, Dupont, NEN Research Products, Boston, Mass.) in a buffer of Tris-HCl 20 mM (pH 7.5), 100 mM (NH4)2 SO4, 10 mM dithiothreitol, 1 mM MgCl2 and 50 mg/ml of bovine serum albumin for 30 minutes at 30° C. The incubation is stopped by applying the cooled solution to a PD10 column (Pharmacia) equilibrated by a buffer of Tris-HCl 20 mM (pH 7.5), 10 mM dithiothreitol, 10 mM MgCl2 and 1 mM phenylmethylsulphonyl fluoride, to eliminate the free nucleotides. The GTPase reaction is a variant of that described by Cassel and Selinger (Biochim. Biophys. Acta 452 (1976) 538). The reaction is started by addition of 10 μl (15 μg) of cytosol obtained by sonic treatment of strains of E. coli which express GAP (cf. Example E.2.1. below for the production of GAP) to 1 pmol of Ha-ras p21-(g^-32 P) GTP in the buffer Tris-HCl 20 mM (pH 7.5), NaCl 100 mM, dithiothreitol 10 mM, MgCl2 5 mM, GTP 100 μM and BSA 50 μg/ml, to obtain a final volume of 50 μl. […] After centrifugation at 1800 g, the radioactivity is measured in samples of 200 μl of the supernatant.

[2] = system: maturation of Xenopus eggs induced by p21 ras Lys12; assay: Maturation of Xenopus eggs (oocytes) induced by ras, % GVBD; format: cell-based, Xenopus laevis; details: microinjection into oocyte cytoplasm together with ras p21 protein; GVBD after 18 hours
Experimental: Xenopus laevis frogs were obtained from CNRS (Montpellier, France). The frogs are anaesthetized in ice-water and fragments of the ovaries are removed surgically and transferred to a modified Barth medium (Hirai et al., Dev. Biol. 100 (1984) 214). The stage VI oocytes are recovered by agitating the oocyte aggregates for 2 hours at ambient temperature in the presence of 2 mg/ml of collagenase (Sigma). For analysis of the maturation induced by ras, 40 nl of the protein in modified Barth medium are introduced into the cytoplasm of the oocytes by microinjection, either alone or in the presence of various concentrations of anti-GAP antibodies. For analysis of the maturation induced by hormones, the oocytes are incubated in the presence of insulin (10 μg/ml) and zinc chloride (10 μM) (bovine pancreatic insulin, Sigma) or progesterone (1 μM). The oocytes are kept at 20° C. in modified Barth medium, and the […] germinal vesicle breakdown (GVBD) is determined after incubation for 18 hours by dissection of the oocytes, which have been fixed beforehand in the presence of 5% of trichloroacetic acid. The results are expressed by the % GVBD on groups of oocytes.
E.3.1. The biological activity of the peptides according to the invention was studied by measuring their effect on the maturation of Xenopus eggs induced by p21 ras Lys12, by insulin or by progesterone.
The protocol used is the same as that described in Example E.1.1. above. The activity is measured by microinjection into the cytoplasm of the oocytes of 40 nl of the ras p21 protein in modified Barth medium, either alone or in the presence of various peptides according to the invention in varying concentrations. The results are expressed by the % of GVBD over the groups of oocytes. The results are shown on FIG. 3.

[3] = system: NIH 3T3 cells cotransfected with oncogenic Ha-ras Val12; assay: Formation of foci of transformed cells; format: cell-based; details: foci formation test, result in words
Experimental: The activity of P9 was then evaluated in a test for formation of foci of transformed cells. The cancerous cells in fact have the property of forming transformation foci, and in particular fibroblasts NIH 3T3 expressing an oncogenic ras. The cells NIH 3T3 were cultured in DMEM medium (Dulbecco's modified Eagle medium) comprising 10% of foetal calf serum at 37° C. in a humid environment containing 5% of CO2. The plasmids pSV2-GAP and pSV2-P9 were constructed by inserting the nucleotide sequences coding for GAP and for P9 (SEQ ID No. 4) into the vector SV2. The cells NIH 3T3 were cotransfected with an oncogenic ras Ha-ras Va112, the plasmide indicated in the table, and a 10-fold excess of the gene having resistance to neomycin by the technique of transfection with cationic lipids (Schweighoffer et al., Science 256 (1992) 825). The same amount of total DNA is transfected for each dish. 24 hours after transfection, the transfected cells originating from each Petri dish (100 mm) are divided in a ratio of 1 to 10 and cultured in the same medium but in the presence of G418 (Gibco/BRL) in an amount of 0.4 mg/ml of medium. The number of transformation foci obtained per μg of transfected DNA is compatibilized after culture for 14 days. They represent the mean of four independent tests.

Row | Molecule | Relative GAP activity ([1]; None = 100, GTPase reaction 3 minutes at 30° C., 1 pmol Ha-ras p21-GTP, E. coli cytosol expressing GAP) | Effect on the GAP-p21 interaction ([1]; same GTPase test, result in words) | Inhibition of the transformation activity of the ras protein (maturation of Xenopus eggs, % GVBD) [2] | Reduction of the transforming power of an oncogenic ras gene [3]
1 | B1 | 100 | does not modify the functional interaction of GAP-p21 | capable of inhibiting the transformation activity of the ras protein | –
2 | B2 | – | – | does not have the activity of the peptide according to the invention | –
3 | B3 | – | – | completely blocks maturation of ovocytes | capable of very greatly reducing the transforming power of an oncogenic ras gene
